Laboratory results reported in the supplement of paper PMC10065799, “High-throughput profiling of sequence recognition by tyrosine kinases and SH2 domains using bacterial peptide display” (eLife, 2023).
One block for each sequence: values may come before it.

Assays:
[1] = tested on: AncSZ; assay: phosphorylation enrichment, bacterial display (enrichment ratio); higher = better substrate or ligand; peptides without Tyr show the background
[2] = target: EPHB1 (UniProt P54762); assay: as above
[3] = target: EPHB2 (UniProt P29323); assay: as above
[4] = target: FGFR1 (UniProt P11362); assay: as above
FGFR1, sequence (P11362 whole entry, looked up): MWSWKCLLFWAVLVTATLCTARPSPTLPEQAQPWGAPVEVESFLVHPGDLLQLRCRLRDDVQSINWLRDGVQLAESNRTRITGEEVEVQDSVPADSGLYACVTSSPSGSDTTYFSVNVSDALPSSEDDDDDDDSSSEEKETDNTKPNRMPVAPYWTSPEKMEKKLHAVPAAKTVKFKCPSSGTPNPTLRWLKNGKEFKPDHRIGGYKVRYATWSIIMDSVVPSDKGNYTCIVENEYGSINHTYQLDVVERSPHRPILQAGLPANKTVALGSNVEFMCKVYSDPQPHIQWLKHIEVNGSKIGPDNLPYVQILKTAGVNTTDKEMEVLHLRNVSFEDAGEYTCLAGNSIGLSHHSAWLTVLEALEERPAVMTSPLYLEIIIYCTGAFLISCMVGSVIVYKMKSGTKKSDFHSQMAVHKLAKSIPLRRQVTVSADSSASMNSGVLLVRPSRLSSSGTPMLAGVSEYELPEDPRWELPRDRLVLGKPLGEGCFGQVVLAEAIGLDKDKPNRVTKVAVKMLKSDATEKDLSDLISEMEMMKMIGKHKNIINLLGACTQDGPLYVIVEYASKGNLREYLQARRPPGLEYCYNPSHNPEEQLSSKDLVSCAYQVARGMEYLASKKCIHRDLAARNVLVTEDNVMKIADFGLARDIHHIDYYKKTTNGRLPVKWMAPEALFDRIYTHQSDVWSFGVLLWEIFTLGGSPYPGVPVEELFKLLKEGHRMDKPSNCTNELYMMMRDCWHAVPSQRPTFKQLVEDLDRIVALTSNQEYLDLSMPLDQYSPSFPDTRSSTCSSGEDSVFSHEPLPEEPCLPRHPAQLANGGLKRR

[5] = target: FGFR3 (UniProt P22607); assay: as above
FGFR3, sequence (P22607 whole entry, looked up): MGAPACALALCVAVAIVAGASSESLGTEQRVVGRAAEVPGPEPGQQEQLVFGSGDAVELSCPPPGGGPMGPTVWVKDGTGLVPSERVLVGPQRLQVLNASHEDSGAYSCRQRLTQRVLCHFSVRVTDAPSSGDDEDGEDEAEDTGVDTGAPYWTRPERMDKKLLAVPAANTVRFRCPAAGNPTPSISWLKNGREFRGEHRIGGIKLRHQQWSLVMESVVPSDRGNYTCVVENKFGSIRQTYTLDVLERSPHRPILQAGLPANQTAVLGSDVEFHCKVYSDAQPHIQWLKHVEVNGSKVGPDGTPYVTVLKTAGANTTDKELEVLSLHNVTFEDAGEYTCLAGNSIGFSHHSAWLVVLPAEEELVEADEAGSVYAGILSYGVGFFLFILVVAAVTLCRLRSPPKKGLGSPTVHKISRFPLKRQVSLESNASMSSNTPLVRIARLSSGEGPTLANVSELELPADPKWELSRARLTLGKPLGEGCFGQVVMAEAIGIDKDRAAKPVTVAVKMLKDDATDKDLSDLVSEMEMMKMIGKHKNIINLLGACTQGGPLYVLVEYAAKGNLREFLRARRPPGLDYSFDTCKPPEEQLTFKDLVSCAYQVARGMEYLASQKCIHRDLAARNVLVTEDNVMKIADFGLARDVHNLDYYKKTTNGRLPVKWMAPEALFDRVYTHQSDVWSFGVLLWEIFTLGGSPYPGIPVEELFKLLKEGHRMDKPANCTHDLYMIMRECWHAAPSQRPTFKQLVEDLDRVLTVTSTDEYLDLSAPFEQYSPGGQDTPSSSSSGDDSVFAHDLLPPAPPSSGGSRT

[6] = tested on: Fer (mouse); assay: as above
[7] = target: Fes (UniProt P07332); assay: as above
[8] = target: Fyn (UniProt P06241); assay: as above
Fyn, sequence (P06241 whole entry, looked up): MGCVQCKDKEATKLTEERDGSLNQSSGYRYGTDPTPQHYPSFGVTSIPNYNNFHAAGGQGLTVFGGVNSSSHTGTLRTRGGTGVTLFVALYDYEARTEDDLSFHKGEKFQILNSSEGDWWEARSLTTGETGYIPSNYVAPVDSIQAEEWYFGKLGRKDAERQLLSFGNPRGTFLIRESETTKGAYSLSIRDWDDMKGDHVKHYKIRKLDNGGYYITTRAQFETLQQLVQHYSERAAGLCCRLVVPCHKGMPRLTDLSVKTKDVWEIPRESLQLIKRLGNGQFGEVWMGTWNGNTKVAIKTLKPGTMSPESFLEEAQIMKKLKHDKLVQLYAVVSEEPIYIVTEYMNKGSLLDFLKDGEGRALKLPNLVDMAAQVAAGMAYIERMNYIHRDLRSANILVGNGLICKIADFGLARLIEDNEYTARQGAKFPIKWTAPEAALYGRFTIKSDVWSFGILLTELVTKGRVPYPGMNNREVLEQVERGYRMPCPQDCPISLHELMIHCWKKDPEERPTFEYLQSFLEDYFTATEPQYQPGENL

[9] = target: Hck (UniProt P08631); assay: as above
Hck, sequence (P08631 whole entry, looked up): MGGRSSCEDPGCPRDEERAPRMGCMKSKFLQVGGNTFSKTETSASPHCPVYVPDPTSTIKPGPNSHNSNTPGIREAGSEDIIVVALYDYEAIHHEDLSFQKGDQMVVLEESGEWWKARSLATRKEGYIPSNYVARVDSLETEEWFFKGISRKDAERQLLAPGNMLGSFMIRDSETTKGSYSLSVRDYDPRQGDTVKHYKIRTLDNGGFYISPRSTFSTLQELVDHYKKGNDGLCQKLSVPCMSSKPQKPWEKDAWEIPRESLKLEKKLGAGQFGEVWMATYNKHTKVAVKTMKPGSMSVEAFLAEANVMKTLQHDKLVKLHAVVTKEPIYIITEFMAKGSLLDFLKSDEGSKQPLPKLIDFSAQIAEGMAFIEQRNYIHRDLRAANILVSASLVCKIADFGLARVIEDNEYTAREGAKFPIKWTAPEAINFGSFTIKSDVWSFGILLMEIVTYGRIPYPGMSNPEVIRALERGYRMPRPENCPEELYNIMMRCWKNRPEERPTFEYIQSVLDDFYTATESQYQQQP

[10] = target: Jak2 (UniProt O60674); assay: as above
Jak2, sequence (O60674 whole entry, looked up): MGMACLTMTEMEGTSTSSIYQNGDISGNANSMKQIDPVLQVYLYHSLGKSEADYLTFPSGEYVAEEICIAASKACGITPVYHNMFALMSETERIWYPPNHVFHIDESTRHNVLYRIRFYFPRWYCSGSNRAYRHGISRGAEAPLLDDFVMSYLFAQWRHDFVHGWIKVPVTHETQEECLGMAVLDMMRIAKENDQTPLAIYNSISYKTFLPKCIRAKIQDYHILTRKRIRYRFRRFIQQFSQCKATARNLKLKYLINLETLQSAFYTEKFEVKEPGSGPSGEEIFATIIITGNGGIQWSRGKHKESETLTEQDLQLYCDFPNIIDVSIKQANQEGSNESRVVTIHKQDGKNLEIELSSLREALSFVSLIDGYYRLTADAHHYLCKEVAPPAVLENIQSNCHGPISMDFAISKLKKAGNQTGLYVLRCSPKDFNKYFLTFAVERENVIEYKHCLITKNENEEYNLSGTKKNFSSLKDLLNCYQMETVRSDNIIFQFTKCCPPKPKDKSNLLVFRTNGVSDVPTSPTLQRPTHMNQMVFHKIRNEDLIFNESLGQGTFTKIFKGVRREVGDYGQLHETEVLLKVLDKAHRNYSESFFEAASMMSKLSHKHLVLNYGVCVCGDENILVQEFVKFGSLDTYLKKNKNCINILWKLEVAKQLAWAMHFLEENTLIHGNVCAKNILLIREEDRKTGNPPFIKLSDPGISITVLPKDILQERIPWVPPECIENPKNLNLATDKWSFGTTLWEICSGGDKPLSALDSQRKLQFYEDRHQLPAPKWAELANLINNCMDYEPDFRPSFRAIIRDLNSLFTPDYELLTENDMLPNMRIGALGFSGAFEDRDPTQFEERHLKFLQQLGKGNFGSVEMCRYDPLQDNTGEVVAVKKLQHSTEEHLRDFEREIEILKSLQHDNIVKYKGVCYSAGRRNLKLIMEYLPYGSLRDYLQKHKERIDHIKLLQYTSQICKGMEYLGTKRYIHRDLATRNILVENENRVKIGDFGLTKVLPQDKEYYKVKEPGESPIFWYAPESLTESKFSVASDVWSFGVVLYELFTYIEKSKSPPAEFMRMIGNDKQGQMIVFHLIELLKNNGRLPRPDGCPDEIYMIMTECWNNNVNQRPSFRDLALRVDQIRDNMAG

[11] = target: MERTK (UniProt Q12866); assay: as above
MERTK, sequence (Q12866 whole entry, looked up): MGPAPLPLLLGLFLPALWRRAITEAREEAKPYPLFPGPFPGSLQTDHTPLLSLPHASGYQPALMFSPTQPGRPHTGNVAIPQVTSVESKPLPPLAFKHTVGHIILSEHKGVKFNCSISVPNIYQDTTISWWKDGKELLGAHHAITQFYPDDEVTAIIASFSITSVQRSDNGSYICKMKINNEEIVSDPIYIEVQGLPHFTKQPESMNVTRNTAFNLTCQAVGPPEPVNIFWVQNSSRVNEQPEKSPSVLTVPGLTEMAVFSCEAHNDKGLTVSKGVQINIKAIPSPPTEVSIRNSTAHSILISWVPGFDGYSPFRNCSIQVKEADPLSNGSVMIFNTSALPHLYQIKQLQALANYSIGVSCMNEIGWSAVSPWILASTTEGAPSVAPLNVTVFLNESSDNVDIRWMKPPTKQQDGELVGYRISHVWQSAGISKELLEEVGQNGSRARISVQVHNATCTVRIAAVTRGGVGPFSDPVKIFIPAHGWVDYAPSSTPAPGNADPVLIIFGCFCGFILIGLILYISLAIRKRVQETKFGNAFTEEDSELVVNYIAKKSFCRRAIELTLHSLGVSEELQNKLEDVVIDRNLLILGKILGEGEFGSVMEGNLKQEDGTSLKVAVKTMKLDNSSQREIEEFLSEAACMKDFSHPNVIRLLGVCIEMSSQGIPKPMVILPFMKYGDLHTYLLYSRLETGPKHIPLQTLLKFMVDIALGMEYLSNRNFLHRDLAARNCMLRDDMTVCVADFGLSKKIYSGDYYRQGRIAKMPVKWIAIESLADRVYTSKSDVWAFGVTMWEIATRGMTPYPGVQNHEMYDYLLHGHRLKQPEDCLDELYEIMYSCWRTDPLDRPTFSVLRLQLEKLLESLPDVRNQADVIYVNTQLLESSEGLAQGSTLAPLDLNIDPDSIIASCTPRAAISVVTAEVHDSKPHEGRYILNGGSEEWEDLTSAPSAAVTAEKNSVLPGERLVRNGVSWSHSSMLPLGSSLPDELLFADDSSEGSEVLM

[12] = tested on: c-Abl (mouse); assay: as above
[13] = tested on: c-Src; assay: as above
[14] = target: Grb2 SH2 (UniProt P62993); assay: SH2 binding enrichment of the phosphorylated peptide, bacterial display (enrichment ratio); higher = better substrate or ligand; peptides without Tyr show the background
[15] = target: SHP2-C SH2; assay: as above
[16] = target: c-Src SH2; assay: as above
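Throughout, for SH2 binding enrichment of the phosphorylated peptide, bacterial display: peptide library displayed on the E. coli surface as eCPX fusions, selected cells deep-sequenced, score is each peptide's frequency after selection divided by its frequency in the input.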
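Throughout, for phosphorylation enrichment, bacterial display: 11-residue human phosphosite peptides and single-mutation variants displayed on the E. coli surface, counted by deep sequencing, each peptide's frequency after selection divided by its frequency in the unselected input library; frequency after pTyr selection over input frequency; kinase dosed for 20-30% of maximal phosphorylation in three min.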

SH2 binding enrichment [14]: 0.862
SH2 binding enrichment [15]: 0.628
SH2 binding enrichment [16]: 2.6
Sequence: NLDRFYQQVTK [SEC16A_Y1041]
phosphorylation enrichment [1]: 0.734
phosphorylation enrichment [2]: 0.516
phosphorylation enrichment [3]: 0.531
phosphorylation enrichment [4]: 0.45
phosphorylation enrichment [5]: 0.574
phosphorylation enrichment [6]: 0.621
phosphorylation enrichment [7]: 0.766
phosphorylation enrichment [8]: 0.43
phosphorylation enrichment [9]: 0.599
phosphorylation enrichment [10]: 0.639
phosphorylation enrichment [11]: 0.58
phosphorylation enrichment [12]: 0.587
phosphorylation enrichment [13]: 0.498

SH2 binding enrichment [14]: 0.657
SH2 binding enrichment [15]: 0.818
SH2 binding enrichment [16]: 0.414
Sequence: RRVLVYVGRGA [QDPR_Y16_G17V]
phosphorylation enrichment [1]: 1.1
phosphorylation enrichment [2]: 0.63
phosphorylation enrichment [3]: 0.858
phosphorylation enrichment [4]: 0.797
phosphorylation enrichment [5]: 0.648
phosphorylation enrichment [6]: 0.85
phosphorylation enrichment [7]: 0.799
phosphorylation enrichment [8]: 0.716
phosphorylation enrichment [9]: 0.506
phosphorylation enrichment [10]: 1.03
phosphorylation enrichment [11]: 0.762
phosphorylation enrichment [12]: 0.798
phosphorylation enrichment [13]: 0.788

SH2 binding enrichment [14]: 0.764
SH2 binding enrichment [15]: 0.826
SH2 binding enrichment [16]: 3.14
Sequence: VNTTLYEKFTY [TEK_Y1108]
phosphorylation enrichment [1]: 0.983
phosphorylation enrichment [2]: 1.92
phosphorylation enrichment [3]: 1.13
phosphorylation enrichment [4]: 0.483
phosphorylation enrichment [5]: 0.648
phosphorylation enrichment [6]: 5.72
phosphorylation enrichment [7]: 0.879
phosphorylation enrichment [8]: 3.69
phosphorylation enrichment [9]: 4.55
phosphorylation enrichment [10]: 0.804
phosphorylation enrichment [11]: 4.25
phosphorylation enrichment [12]: 0.908
phosphorylation enrichment [13]: 3.87

SH2 binding enrichment [14]: 0.846
SH2 binding enrichment [15]: 0.665
SH2 binding enrichment [16]: 0.572
Sequence: YRDALYKFMVD [PHEX_Y250]
phosphorylation enrichment [1]: 1.14
phosphorylation enrichment [2]: 1.24
phosphorylation enrichment [3]: 0.797
phosphorylation enrichment [4]: 0.869
phosphorylation enrichment [5]: 1.25
phosphorylation enrichment [6]: 0.678
phosphorylation enrichment [7]: 1.33
phosphorylation enrichment [8]: 0.61
phosphorylation enrichment [9]: 0.712
phosphorylation enrichment [10]: 1.11
phosphorylation enrichment [11]: 1.2
phosphorylation enrichment [12]: 0.803
phosphorylation enrichment [13]: 0.624

SH2 binding enrichment [14]: 0.82
SH2 binding enrichment [15]: 0.57
SH2 binding enrichment [16]: 0.645
Sequence: PDKRIYQFTAA [SKAP2_Y197]
phosphorylation enrichment [1]: 0.73
phosphorylation enrichment [2]: 0.779
phosphorylation enrichment [3]: 0.553
phosphorylation enrichment [4]: 0.476
phosphorylation enrichment [5]: 0.497
phosphorylation enrichment [6]: 0.769
phosphorylation enrichment [7]: 0.708
phosphorylation enrichment [8]: 0.566
phosphorylation enrichment [9]: 0.578
phosphorylation enrichment [10]: 0.651
phosphorylation enrichment [11]: 0.999
phosphorylation enrichment [12]: 0.47
phosphorylation enrichment [13]: 0.729

SH2 binding enrichment [14]: 0.725
SH2 binding enrichment [15]: 0.644
SH2 binding enrichment [16]: 0.379
Sequence: GEEIKYTLWLS [OTC_Y55_M56T]
phosphorylation enrichment [1]: 1.35
phosphorylation enrichment [2]: 0.704
phosphorylation enrichment [3]: 0.605
phosphorylation enrichment [4]: 0.538
phosphorylation enrichment [5]: 0.882
phosphorylation enrichment [6]: 0.712
phosphorylation enrichment [7]: 1.4
phosphorylation enrichment [8]: 0.418
phosphorylation enrichment [9]: 0.529
phosphorylation enrichment [10]: 1.21
phosphorylation enrichment [11]: 0.512
phosphorylation enrichment [12]: 0.873
phosphorylation enrichment [13]: 0.443

Further lines, the sequence ahead of its results:

Sequence: ATVLNYLPKCI [A2M_Y817]
phosphorylation enrichment [1]: 0.747
phosphorylation enrichment [2]: 0.662
phosphorylation enrichment [3]: 0.542
phosphorylation enrichment [4]: 0.519
phosphorylation enrichment [5]: 0.649
phosphorylation enrichment [6]: 0.438
phosphorylation enrichment [7]: 0.987
phosphorylation enrichment [8]: 0.437
phosphorylation enrichment [9]: 0.599
phosphorylation enrichment [10]: 0.858
phosphorylation enrichment [11]: 0.392
phosphorylation enrichment [12]: 0.714
phosphorylation enrichment [13]: 0.385
SH2 binding enrichment [14]: 0.899
SH2 binding enrichment [15]: 0.736
SH2 binding enrichment [16]: 0.535

Sequence: KGVDRYNPENL [EIF3K_Y21_I18V]
phosphorylation enrichment [1]: 0.502
phosphorylation enrichment [2]: 0.35
phosphorylation enrichment [3]: 0.648
phosphorylation enrichment [4]: 0.308
phosphorylation enrichment [5]: 0.372
phosphorylation enrichment [6]: 0.311
phosphorylation enrichment [7]: 0.466
phosphorylation enrichment [8]: 0.415
phosphorylation enrichment [9]: 0.437
phosphorylation enrichment [10]: 0.428
phosphorylation enrichment [11]: 0.402
phosphorylation enrichment [12]: 0.392
phosphorylation enrichment [13]: 0.397
SH2 binding enrichment [14]: 0.643
SH2 binding enrichment [15]: 0.592
SH2 binding enrichment [16]: 0.465

Sequence: LTQRTYMLENA [GPAA1_Y49_S51L]
phosphorylation enrichment [1]: 0.843
phosphorylation enrichment [2]: 0.783
phosphorylation enrichment [3]: 0.541
phosphorylation enrichment [4]: 0.866
phosphorylation enrichment [5]: 0.929
phosphorylation enrichment [6]: 0.468
phosphorylation enrichment [7]: 1.01
phosphorylation enrichment [8]: 0.858
phosphorylation enrichment [9]: 0.547
phosphorylation enrichment [10]: 0.64
phosphorylation enrichment [11]: 0.536
phosphorylation enrichment [12]: 0.623
phosphorylation enrichment [13]: 0.479
SH2 binding enrichment [14]: 0.988
SH2 binding enrichment [15]: 1.06
SH2 binding enrichment [16]: 0.747

Sequence: ESMNIYLQTSP [NAT1_Y208_T207I]
phosphorylation enrichment [1]: 1.21
phosphorylation enrichment [2]: 0.752
phosphorylation enrichment [3]: 0.697
phosphorylation enrichment [4]: 0.674
phosphorylation enrichment [5]: 0.87
phosphorylation enrichment [6]: 0.635
phosphorylation enrichment [7]: 1.05
phosphorylation enrichment [8]: 0.847
phosphorylation enrichment [9]: 1.05
phosphorylation enrichment [10]: 1.17
phosphorylation enrichment [11]: 0.618
phosphorylation enrichment [12]: 0.812
phosphorylation enrichment [13]: 1.06
SH2 binding enrichment [14]: 0.829
SH2 binding enrichment [15]: 0.455
SH2 binding enrichment [16]: 0.441

Sequence: KICDWYQRQRP [KRT14_Y151_R148C]
phosphorylation enrichment [1]: 1
phosphorylation enrichment [2]: 0.398
phosphorylation enrichment [3]: 0.602
phosphorylation enrichment [4]: 0.466
phosphorylation enrichment [5]: 0.598
phosphorylation enrichment [6]: 0.513
phosphorylation enrichment [7]: 0.9
phosphorylation enrichment [8]: 0.447
phosphorylation enrichment [9]: 0.407
phosphorylation enrichment [10]: 0.651
phosphorylation enrichment [11]: 0.511
phosphorylation enrichment [12]: 0.555
phosphorylation enrichment [13]: 0.48
SH2 binding enrichment [14]: 0.854
SH2 binding enrichment [15]: 0.75
SH2 binding enrichment [16]: 0.616

Sequence: REAAAYPHGRL [AGXT_Y297_L298P]
phosphorylation enrichment [1]: 0.516
phosphorylation enrichment [2]: 0.254
phosphorylation enrichment [3]: 0.442
phosphorylation enrichment [4]: 0.25
phosphorylation enrichment [5]: 0.41
phosphorylation enrichment [6]: 0.192
phosphorylation enrichment [7]: 0.46
phosphorylation enrichment [8]: 0.274
phosphorylation enrichment [9]: 0.404
phosphorylation enrichment [10]: 0.704
phosphorylation enrichment [11]: 0.32
phosphorylation enrichment [12]: 0.415
phosphorylation enrichment [13]: 0.329
SH2 binding enrichment [14]: 0.989
SH2 binding enrichment [15]: 0.739
SH2 binding enrichment [16]: 0.55

Sequence: EKMWSYTKSAE [GRIA3_Y705_M706T]
phosphorylation enrichment [1]: 0.658
phosphorylation enrichment [2]: 0.426
phosphorylation enrichment [3]: 0.487
phosphorylation enrichment [4]: 0.419
phosphorylation enrichment [5]: 0.529
phosphorylation enrichment [6]: 0.411
phosphorylation enrichment [7]: 0.748
phosphorylation enrichment [8]: 0.425
phosphorylation enrichment [9]: 0.451
phosphorylation enrichment [10]: 0.592
phosphorylation enrichment [11]: 0.44
phosphorylation enrichment [12]: 0.68
phosphorylation enrichment [13]: 0.464
SH2 binding enrichment [14]: 0.869
SH2 binding enrichment [15]: 0.937
SH2 binding enrichment [16]: 0.473

Sequence: FPILNYKDIRK [CFAP221_Y798_M795I]
phosphorylation enrichment [1]: 0.546
phosphorylation enrichment [2]: 0.478
phosphorylation enrichment [3]: 0.487
phosphorylation enrichment [4]: 0.431
phosphorylation enrichment [5]: 0.464
phosphorylation enrichment [6]: 0.449
phosphorylation enrichment [7]: 0.666
phosphorylation enrichment [8]: 0.368
phosphorylation enrichment [9]: 0.391
phosphorylation enrichment [10]: 0.745
phosphorylation enrichment [11]: 0.453
phosphorylation enrichment [12]: 0.486
phosphorylation enrichment [13]: 0.49
SH2 binding enrichment [14]: 0.76
SH2 binding enrichment [15]: 0.696
SH2 binding enrichment [16]: 0.447
